{"source": "patent US20240109955A1", "experiment_in_all_cases": "cell-based or functional assay", "key": {"[1]": {"target": "SARS-CoV-2 spike protein, Beta variant 1 (B.1.351.v1) (SARS-CoV-2)"}, "[2]": {"target": "SARS-CoV-2 spike (S) protein, C.1.2 variant (SARS-CoV-2) (UniProt P0DTC2)"}, "[3]": {"target": "SARS-CoV-2 spike protein, Omicron variant BA.1 (SARS-CoV-2) (UniProt P0DTC2)"}, "[4]": {"target": "SARS-CoV-2 spike protein, Alpha variant (B.1.1.7) (SARS-CoV-2)"}, "[5]": {"target": "SARS-CoV-2 Omicron BA.4.6 spike protein (R346T, F486V) (SARS-CoV-2) (UniProt P0DTC2)"}, "[6]": {"target": "SARS-CoV-2 spike (S) protein, Iota variant (B.1.526) (SARS-CoV-2) (UniProt P0DTC2)"}, "[7]": {"target": "SARS-CoV-2 spike protein, Delta variant (B.1.617.2) (SARS-CoV-2)"}, "[8]": {"target": "SARS-CoV-2 spike protein, Gamma variant (P.1) (SARS-CoV-2)"}, "[9]": {"target": "SARS-CoV-2 spike protein, Omicron variant BA.2 (SARS-CoV-2) (UniProt P0DTC2)"}, "[10]": {"target": "SARS-CoV-2 spike (S) protein, Mu variant (B.1.621) (SARS-CoV-2) (UniProt P0DTC2)"}, "[11]": {"target": "SARS-CoV-2 spike (S) protein, Lambda variant (C.37) (SARS-CoV-2) (UniProt P0DTC2)"}, "[12]": {"target": "SARS-CoV-2 spike protein, Omicron variant BA1.1.529 (SARS-CoV-2) (UniProt P0DTC2)"}, "[13]": {"target": "SARS-CoV-2 spike protein, Omicron variant BA.2.12.1 (SARS-CoV-2) (UniProt P0DTC2)"}, "[14]": {"target": "SARS-CoV-2 spike protein, Omicron variant BA.2.75.2 (SARS-CoV-2)"}, "[15]": {"target": "SARS-CoV-2 spike protein, Omicron variant BQ.1.1 (SARS-CoV-2)"}, "[16]": {"target": "SARS-CoV-2 Omicron variant BA.2.75.2 spike protein (SARS-CoV-2)"}, "[17]": {"target": "SARS-CoV-2 Omicron variant BA.4/5 spike protein (SARS-CoV-2)"}, "[18]": {"target": "SARS-CoV-2 Omicron variant BQ.1.1 spike protein (SARS-CoV-2)"}, "[19]": {"target": "SARS-CoV-2 spike protein, Omicron variant BA.4/5 (SARS-CoV-2)"}, "[20]": {"target": "SARS-CoV-2 spike (S) protein, Omicron sublineage BA.1.1 (R346K) (SARS-CoV-2) (UniProt P0DTC2)"}, "[21]": {"target": "SARS-CoV-2 spike (S) protein, Omicron sublineage BA.4.6 (R346T, F486V) (SARS-CoV-2) (UniProt P0DTC2)"}, "[22]": {"target": "SARS-CoV-2 spike (S) protein, Omicron sublineage BA.4.7 (R346S, F486V) (SARS-CoV-2) (UniProt P0DTC2)"}, "[23]": {"target": "SARS-CoV-2 spike (S) protein, Omicron sublineage BQ 1.1 (R346T, K444T, F486V) (SARS-CoV-2) (UniProt P0DTC2)"}, "[24]": {"target": "SARS-CoV-2 spike (S) protein, Omicron sublineage BF.7 (R346T, F486V) (SARS-CoV-2) (UniProt P0DTC2)"}, "[25]": {"target": "SARS-CoV-2 Omicron variant XBB spike protein (SARS-CoV-2)"}}, "data": [{"substance": "A19-46.1 (antibody)", "values": [{"measurement": "IC50, pseudovirus neutralization", "setting": "[1]", "result": 0.807, "unit": "nM"}, {"measurement": "IC80, pseudovirus neutralization", "setting": "[1]", "result": 2.07, "unit": "nM"}, {"measurement": "pseudovirus neutralization IC50 (nM (inferred))", "setting": "[2]", "result": 11.6}, {"measurement": "pseudovirus neutralization IC80 (nM (inferred))", "setting": "[2]", "result": 21}, {"measurement": "IC50, pseudovirus neutralization", "setting": "[3]", "result": 0.958, "unit": "nM"}, {"measurement": "IC80, pseudovirus neutralization", "setting": "[3]", "result": 2.28, "unit": "nM"}, {"measurement": "IC50, pseudovirus neutralization", "setting": "[4]", "result": 0.19, "unit": "nM"}, {"measurement": "IC80, pseudovirus neutralization", "setting": "[4]", "result": 0.486, "unit": "nM"}, {"measurement": "IC50, pseudovirus neutralization", "setting": "[5]", "result": "> 10000", "unit": "nM"}, {"measurement": "IC80, pseudovirus neutralization", "setting": "[5]", "result": "> 10000", "unit": "nM"}, {"measurement": "pseudovirus neutralization IC50 (nM (inferred))", "setting": "[6]", "result": 0.803}, {"measurement": "pseudovirus neutralization IC80 (nM (inferred))", "setting": "[6]", "result": 1.88}, {"measurement": "IC50, pseudovirus neutralization", "setting": "[7]", "result": "> 66.7", "unit": "nM"}, {"measurement": "IC80, pseudovirus neutralization", "setting": "[7]", "result": "> 66.7", "unit": "nM"}, {"measurement": "IC50, pseudovirus neutralization", "setting": "[8]", "result": 0.26, "unit": "nM"}, {"measurement": "IC80, pseudovirus neutralization", "setting": "[8]", "result": 0.7, "unit": "nM"}, {"measurement": "IC50, pseudovirus neutralization", "setting": "[9]", "result": 0.69, "unit": "nM"}, {"measurement": "IC80, pseudovirus neutralization", "setting": "[9]", "result": 2.23, "unit": "nM"}, {"measurement": "pseudovirus neutralization IC50 (nM (inferred))", "setting": "[10]", "result": 1.34}, {"measurement": "pseudovirus neutralization IC80 (nM (inferred))", "setting": "[10]", "result": 3.81}, {"measurement": "pseudovirus neutralization IC50 (nM (inferred))", "setting": "[11]", "result": "> 66.7"}, {"measurement": "pseudovirus neutralization IC80 (nM (inferred))", "setting": "[11]", "result": "> 66.7"}, {"measurement": "IC50, pseudovirus neutralization", "setting": "[12]", "result": 1.84, "unit": "nM"}, {"measurement": "IC80, pseudovirus neutralization", "setting": "[12]", "result": 2.84, "unit": "nM"}, {"measurement": "IC50, pseudovirus neutralization", "setting": "[13]", "result": "> 66.7", "unit": "nM"}, {"measurement": "IC80, pseudovirus neutralization", "setting": "[13]", "result": "> 66.7", "unit": "nM"}]}, {"substance": "A19-46 (antibody)", "values": [{"measurement": "IC50, pseudovirus neutralization", "setting": "[14]", "result": "> 10", "unit": "µg/mL"}, {"measurement": "IC80, pseudovirus neutralization", "setting": "[14]", "result": "> 10", "unit": "µg/mL"}, {"measurement": "IC50, pseudovirus neutralization", "setting": "[15]", "result": 0.386, "unit": "µg/mL"}, {"measurement": "IC80, pseudovirus neutralization", "setting": "[15]", "result": 1.11, "unit": "µg/mL"}, {"measurement": "IC50, pseudovirus neutralization", "setting": "[16]", "result": "> 10", "unit": "µg/mL"}, {"measurement": "IC80, pseudovirus neutralization", "setting": "[16]", "result": "> 10", "unit": "µg/mL"}, {"measurement": "IC50, pseudovirus neutralization", "setting": "[17]", "result": "> 10", "unit": "µg/mL"}, {"measurement": "IC80, pseudovirus neutralization", "setting": "[17]", "result": "> 10", "unit": "µg/mL"}, {"measurement": "IC50, pseudovirus neutralization", "setting": "[18]", "result": 0.386, "unit": "µg/mL"}, {"measurement": "IC80, pseudovirus neutralization", "setting": "[18]", "result": 1.11, "unit": "µg/mL"}, {"measurement": "IC50, pseudovirus neutralization", "setting": "[19]", "result": "> 10", "unit": "µg/mL"}, {"measurement": "IC80, pseudovirus neutralization", "setting": "[19]", "result": "> 10", "unit": "µg/mL"}]}, {"substance": "bebtelovimab (LY1404) (antibody)", "values": [{"measurement": "IC50, pseudovirus neutralization", "setting": "[20]", "result": 26.4, "unit": "nM"}, {"measurement": "IC80, pseudovirus neutralization", "setting": "[20]", "result": 65.1, "unit": "nM"}, {"measurement": "IC50, pseudovirus neutralization", "setting": "[21]", "result": 22.3, "unit": "nM"}, {"measurement": "IC80, pseudovirus neutralization", "setting": "[21]", "result": 25.4, "unit": "nM"}, {"measurement": "IC50, pseudovirus neutralization", "setting": "[22]", "result": 5.9, "unit": "nM"}, {"measurement": "IC80, pseudovirus neutralization", "setting": "[22]", "result": 16.1, "unit": "nM"}, {"measurement": "IC50, pseudovirus neutralization", "setting": "[23]", "result": "> 10000", "unit": "nM"}, {"measurement": "IC80, pseudovirus neutralization", "setting": "[23]", "result": "> 10000", "unit": "nM"}, {"measurement": "IC50, pseudovirus neutralization", "setting": "[16]", "result": 0.00567, "unit": "µg/mL"}, {"measurement": "IC80, pseudovirus neutralization", "setting": "[16]", "result": 0.0207, "unit": "µg/mL"}, {"measurement": "IC50, pseudovirus neutralization", "setting": "[24]", "result": 16.9, "unit": "nM"}, {"measurement": "IC80, pseudovirus neutralization", "setting": "[24]", "result": 25.2, "unit": "nM"}, {"measurement": "IC50, pseudovirus neutralization", "setting": "[18]", "result": "> 10", "unit": "µg/mL"}, {"measurement": "IC80, pseudovirus neutralization", "setting": "[18]", "result": "> 10", "unit": "µg/mL"}, {"measurement": "IC50, pseudovirus neutralization", "setting": "[25]", "result": "> 10", "unit": "µg/mL"}, {"measurement": "IC80, pseudovirus neutralization", "setting": "[25]", "result": "> 10", "unit": "µg/mL"}]}]}
